Laboratory results: US20050100554A1 (published 2005)

T1: hypothetical protein FLJ20259 (human, UniProt Q2TAL8 1-776)
T1 construct: also called cbe_1469980
T1 sequence: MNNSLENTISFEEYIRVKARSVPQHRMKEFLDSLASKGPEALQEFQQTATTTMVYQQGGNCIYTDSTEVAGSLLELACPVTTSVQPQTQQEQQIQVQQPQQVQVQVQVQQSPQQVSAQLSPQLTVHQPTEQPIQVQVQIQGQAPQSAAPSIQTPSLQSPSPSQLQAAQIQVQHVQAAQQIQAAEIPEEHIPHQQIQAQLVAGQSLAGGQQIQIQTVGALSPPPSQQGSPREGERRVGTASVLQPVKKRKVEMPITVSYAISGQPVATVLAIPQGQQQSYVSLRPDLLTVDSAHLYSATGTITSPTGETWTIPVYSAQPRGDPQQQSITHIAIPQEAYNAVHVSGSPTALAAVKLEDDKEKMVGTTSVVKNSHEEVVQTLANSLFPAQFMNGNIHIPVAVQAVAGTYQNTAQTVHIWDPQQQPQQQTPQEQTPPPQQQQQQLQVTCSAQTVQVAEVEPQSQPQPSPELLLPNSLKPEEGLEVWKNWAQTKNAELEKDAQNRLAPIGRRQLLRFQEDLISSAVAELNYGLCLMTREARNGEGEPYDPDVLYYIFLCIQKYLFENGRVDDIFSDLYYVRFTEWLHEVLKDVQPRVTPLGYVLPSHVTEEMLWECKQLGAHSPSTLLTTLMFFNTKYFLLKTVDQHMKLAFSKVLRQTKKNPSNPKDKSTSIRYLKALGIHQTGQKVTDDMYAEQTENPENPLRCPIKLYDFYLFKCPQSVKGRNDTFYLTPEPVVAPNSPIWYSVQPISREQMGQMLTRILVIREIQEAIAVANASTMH

T2: testis-specific protein NYD-TSP1 (human, UniProt Q9BXG8 1-430)
T2 construct: also called Hs.98226; cbe_3826540
T2 sequence: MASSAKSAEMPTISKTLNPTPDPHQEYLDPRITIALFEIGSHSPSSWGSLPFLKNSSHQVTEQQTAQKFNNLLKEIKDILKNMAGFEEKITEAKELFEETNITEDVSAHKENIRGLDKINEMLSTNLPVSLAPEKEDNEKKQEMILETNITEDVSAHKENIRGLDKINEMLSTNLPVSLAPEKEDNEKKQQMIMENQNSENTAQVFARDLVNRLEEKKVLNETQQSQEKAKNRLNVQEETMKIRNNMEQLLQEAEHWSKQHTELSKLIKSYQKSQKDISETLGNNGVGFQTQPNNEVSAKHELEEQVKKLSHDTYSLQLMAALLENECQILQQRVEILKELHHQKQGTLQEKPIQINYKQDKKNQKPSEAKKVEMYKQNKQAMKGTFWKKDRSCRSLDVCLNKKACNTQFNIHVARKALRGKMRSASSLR

T3: EphB1 (human, UniProt P54762 18-984)
T3 construct: also called cbe_3810791
T3 sequence: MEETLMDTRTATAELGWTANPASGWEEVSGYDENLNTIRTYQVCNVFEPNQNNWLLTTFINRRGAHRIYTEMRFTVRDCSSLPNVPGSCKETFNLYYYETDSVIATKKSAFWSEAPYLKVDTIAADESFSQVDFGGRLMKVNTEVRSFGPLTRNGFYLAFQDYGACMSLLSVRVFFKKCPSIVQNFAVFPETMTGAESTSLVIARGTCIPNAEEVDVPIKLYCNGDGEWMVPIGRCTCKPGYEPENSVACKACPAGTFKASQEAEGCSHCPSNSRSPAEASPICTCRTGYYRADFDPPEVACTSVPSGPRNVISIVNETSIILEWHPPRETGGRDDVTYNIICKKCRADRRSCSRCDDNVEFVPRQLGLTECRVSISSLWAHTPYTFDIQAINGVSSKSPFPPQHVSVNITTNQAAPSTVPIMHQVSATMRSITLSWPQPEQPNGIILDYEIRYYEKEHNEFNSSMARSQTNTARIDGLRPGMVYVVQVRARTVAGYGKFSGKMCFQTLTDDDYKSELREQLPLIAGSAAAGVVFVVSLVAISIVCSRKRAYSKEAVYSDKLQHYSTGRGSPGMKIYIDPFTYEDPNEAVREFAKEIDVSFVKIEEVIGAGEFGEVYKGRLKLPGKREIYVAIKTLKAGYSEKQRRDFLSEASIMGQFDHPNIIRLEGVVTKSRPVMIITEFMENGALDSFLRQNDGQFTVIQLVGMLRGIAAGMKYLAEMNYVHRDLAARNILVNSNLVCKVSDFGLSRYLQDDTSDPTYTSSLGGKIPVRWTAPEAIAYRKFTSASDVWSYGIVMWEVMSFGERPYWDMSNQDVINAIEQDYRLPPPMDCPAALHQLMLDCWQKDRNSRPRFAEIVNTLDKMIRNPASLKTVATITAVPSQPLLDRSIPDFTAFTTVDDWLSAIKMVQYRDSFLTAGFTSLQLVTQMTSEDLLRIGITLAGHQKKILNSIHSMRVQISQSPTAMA

T4: pumilio homolog 1 (Drosophila) (human, UniProt Q14671 2-1186)
T4 construct: also called PUM1; cbe_4540466
T4 sequence: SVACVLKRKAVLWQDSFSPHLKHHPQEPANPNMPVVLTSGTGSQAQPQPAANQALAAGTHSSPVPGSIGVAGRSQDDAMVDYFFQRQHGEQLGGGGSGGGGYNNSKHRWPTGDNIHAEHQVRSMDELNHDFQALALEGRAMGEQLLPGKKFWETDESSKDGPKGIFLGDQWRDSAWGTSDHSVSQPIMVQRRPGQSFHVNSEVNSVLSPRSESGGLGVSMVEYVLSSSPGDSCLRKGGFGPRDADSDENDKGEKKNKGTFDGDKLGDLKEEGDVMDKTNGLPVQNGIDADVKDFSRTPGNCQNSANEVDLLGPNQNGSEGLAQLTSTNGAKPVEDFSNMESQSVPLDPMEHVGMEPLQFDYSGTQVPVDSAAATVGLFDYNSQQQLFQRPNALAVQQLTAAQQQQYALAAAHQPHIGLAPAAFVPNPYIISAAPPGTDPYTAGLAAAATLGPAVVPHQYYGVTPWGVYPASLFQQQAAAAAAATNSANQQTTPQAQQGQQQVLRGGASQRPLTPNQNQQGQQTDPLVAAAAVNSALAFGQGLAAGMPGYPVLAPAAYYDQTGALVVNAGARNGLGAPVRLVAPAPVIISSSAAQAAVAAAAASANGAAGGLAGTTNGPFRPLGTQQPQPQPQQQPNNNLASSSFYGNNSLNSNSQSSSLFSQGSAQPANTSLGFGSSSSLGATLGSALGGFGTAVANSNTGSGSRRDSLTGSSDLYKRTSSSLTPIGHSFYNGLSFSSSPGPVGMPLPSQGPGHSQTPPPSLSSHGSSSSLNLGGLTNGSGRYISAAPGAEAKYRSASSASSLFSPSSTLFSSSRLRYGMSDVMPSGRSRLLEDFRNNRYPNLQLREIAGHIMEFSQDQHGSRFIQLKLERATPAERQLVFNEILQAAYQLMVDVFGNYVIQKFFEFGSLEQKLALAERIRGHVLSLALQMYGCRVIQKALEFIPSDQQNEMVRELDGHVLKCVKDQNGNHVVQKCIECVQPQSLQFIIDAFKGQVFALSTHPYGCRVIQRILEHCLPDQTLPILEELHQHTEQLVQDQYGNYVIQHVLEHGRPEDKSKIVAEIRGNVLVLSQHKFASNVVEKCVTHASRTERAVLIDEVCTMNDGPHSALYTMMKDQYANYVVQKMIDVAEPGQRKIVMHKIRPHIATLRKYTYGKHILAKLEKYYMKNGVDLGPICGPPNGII

B1: Human Papillomavirus 1a E2 (other)
chain: MENLSSRLDLLQEQLMNLYEQDSKLIEDQIKQWNLIRQEQVLFHFARKNGVMRIGLQAVPSLASSQEKAKTAIEMVLHLESLKDSPYGTEDWSLQDTSRELFLAPPAGTFKKSGSTLEVTYDNNPDNQTRHTIWNHVYYQNGDDVWRKVSSGVDAVGVYYLEHDGYKNYYVLFAEEASKYSTTGQYAVNYRGKRFTNVMSSTSSPRAAGAPAVHSDYPTLSESDTAQQSTSIDYTELPGQGETSQVRQRQQKTPVRRRPYGRRRSRSPRGGGRREGESTPSRTPGSVPSARDVGSIHTTPQKGHSSRLRRLLQEAWDPPVVCVKGGANQLKCLRYRLKASTQVDFDSISTTWHWTDRKNTERIGSARMLVKFIDEAQREKFLERVALPRSVSVFLGQFNGS
notes: also called HPV 1a E2; cbe_251917
B2: Human Papillomavirus 1a L2 (other)
chain: MYRLRRKRAAPKDIYPSCKISNTCPPDIQNKIEHTTIADKILQYGSLGVFLGGLGIGTARGSGGRIGYTPLGEGGGVRVATRPTPVRPTIPVETVGPSEIFPIDVVDPTGPAVIPLQDLGRDFPIPTVQVIAEIHPISDIPNIVASSTNEGESAILDVLRGNATIRTVSRTQYNNPSFTVASTSNISAGEASTSDIVFVSNGSGDRVVGEDIPLVELNLGLETDTSSVVQETAFSSSTPIAERPSFRPSRFYNRRLYEQVQVQDPRFVEQPQSMVTFDNPAFEPELDEVSIIFQRDLDALAQTPVPEFRDVVYLSKPTFSREPGGRLRVSRLGKSSTIRTRLGTAIGARTHFFYDLSSIAPEDSIELLPLGEHSQTTVISSNLGDTAFIQGETAEDDLEVISLETPQLYSEEELLDTNESVGENLQLTITNSEGEVSILDLTQSRVRPPFGTEDTSLHVYYPNSSKGTPIINPEESFTPLVIIALNNSTGDFELHPSLRKRRKRAYV
notes: also called HPV 1a L2; cbe_252041
B3: Prey1053670 (other)
chain: MSSDERKAFLQFTTGCSTLPPGGLANLHPRLTVVRKVDATDASYPSVNTCVHYLKLPEYSSEEIMRERLLAATMEKGFHLN
notes: also called Homo sapiens, Similar to CG5604 gene product, clone MGC:11330; cbe_3606990
B4: RIL (other)
chain: MPHSVTLRGPSPWGFRLVGGRDFSAPLTISRVHAGSKAALAALCPGDLIQAINGESTELMTHLEAQNRIKGCHDHLTLSVSRPEGRSWPSAPDDSKAQAHRIHIDPEIQDGSPTTSRRPSGTGTGPEDGRPSLGSPYGQPPRFPVPHNGSSEATLPAQMSTLHVSPPPSADPARGLPRSRDCRVDLGSEVYRMLREPAEPVAAEPKQSGSFRYLQGMLEAGEGGDWPGPGGPRNLKPTASKLGAPLSGLQGLPECTRCGHGIVGTIVKARDKLYHPECFMCSDCGLNLKQRGYFFLDERLYCESHAKARVKPPEGYDVVAVYPNAKVELV
notes: also called cbe_4269628

Assays:
[1] = molecular target: T1, hypothetical protein FLJ20259; test: Y2H; INT ID 411
ribosomal protein S10 = molecular target: T5, ribosomal protein S10 (human, UniProt P46783 1-165); test: Y2H; INT ID 412
T5 construct: also called RPS10; cbe_2826346

[2] = molecular target: T6, ankylosis, progressive homolog (mouse) (human, UniProt Q9HCJ1 1-492); test: Y2H; INT ID 417
T6 construct: also called ANKH; cbe_3641816
T6 sequence (Q9HCJ1 whole entry): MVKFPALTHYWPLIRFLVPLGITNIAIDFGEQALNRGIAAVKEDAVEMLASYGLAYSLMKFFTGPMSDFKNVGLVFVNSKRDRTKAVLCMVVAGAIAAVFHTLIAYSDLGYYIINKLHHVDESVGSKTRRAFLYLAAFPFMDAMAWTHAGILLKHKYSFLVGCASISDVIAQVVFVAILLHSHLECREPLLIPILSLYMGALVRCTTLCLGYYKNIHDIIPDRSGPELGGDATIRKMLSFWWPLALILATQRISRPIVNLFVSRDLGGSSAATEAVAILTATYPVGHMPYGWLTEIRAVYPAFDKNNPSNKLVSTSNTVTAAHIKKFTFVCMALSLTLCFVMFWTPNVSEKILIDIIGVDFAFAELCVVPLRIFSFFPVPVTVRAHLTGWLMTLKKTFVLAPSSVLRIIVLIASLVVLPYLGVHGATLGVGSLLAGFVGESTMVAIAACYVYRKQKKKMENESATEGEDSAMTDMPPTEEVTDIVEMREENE

[3] = molecular target: T2, testis-specific protein NYD-TSP1; test: Y2H; INT ID 418
GNB2L1 = molecular target: T7, GNB2L1 (human, UniProt P63244 1-317); test: Y2H; INT ID 420
T7 construct: also called cbe_4269834

EphB1 = molecular target: T3, EphB1; test: Y2H; INT ID 448
GSN = molecular target: T8, GSN (human, UniProt P06396 28-782); test: Y2H; INT ID 449
T8 construct: also called cbe_4248793
T8 sequence (P06396 28-782 limits assumed): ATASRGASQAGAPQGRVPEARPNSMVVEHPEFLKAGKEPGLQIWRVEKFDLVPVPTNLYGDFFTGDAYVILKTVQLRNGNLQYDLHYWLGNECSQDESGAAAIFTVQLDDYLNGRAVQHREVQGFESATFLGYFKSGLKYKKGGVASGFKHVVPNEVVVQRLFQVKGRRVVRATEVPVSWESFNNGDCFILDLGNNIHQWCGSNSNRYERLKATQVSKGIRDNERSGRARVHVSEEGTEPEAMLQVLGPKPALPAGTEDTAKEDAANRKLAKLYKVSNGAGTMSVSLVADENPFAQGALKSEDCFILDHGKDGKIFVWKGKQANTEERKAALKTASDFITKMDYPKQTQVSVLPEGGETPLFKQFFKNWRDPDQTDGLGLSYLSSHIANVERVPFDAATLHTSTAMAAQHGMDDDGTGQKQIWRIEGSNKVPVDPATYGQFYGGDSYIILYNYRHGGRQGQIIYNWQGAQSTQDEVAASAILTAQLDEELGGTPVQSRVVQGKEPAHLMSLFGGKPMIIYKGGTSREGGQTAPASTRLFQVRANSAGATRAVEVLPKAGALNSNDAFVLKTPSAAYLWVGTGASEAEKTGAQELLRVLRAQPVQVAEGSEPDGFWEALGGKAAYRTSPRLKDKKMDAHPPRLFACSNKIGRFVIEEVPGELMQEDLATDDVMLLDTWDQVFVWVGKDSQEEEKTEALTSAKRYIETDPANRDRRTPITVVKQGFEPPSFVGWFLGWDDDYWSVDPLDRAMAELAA

[4] = molecular target: T4, pumilio homolog 1 (Drosophila); test: Y2H; INT ID 452
[5] = molecular target: B2; test: Y2H; INT ID 446
[6] = molecular target: B2; test: Y2H; INT ID 451

## B1
[1]
  binding result: binds
Ribosomal protein S10
  binding result: binds
[2]
  binding result: binds
[3]
  binding result: binds
GNB2L1
  binding result: binds

## B2
EphB1
  binding result: binds
GSN
  binding result: binds
[4]
  binding result: binds

## B3
[5]
  binding result: binds

## B4
[6]
  binding result: binds
